The values that follow come from publication doi:10.1101/851261 (2019).

The target of one assay is T1, AjKissR1 (Apostichopus japonicus).
T1 chain: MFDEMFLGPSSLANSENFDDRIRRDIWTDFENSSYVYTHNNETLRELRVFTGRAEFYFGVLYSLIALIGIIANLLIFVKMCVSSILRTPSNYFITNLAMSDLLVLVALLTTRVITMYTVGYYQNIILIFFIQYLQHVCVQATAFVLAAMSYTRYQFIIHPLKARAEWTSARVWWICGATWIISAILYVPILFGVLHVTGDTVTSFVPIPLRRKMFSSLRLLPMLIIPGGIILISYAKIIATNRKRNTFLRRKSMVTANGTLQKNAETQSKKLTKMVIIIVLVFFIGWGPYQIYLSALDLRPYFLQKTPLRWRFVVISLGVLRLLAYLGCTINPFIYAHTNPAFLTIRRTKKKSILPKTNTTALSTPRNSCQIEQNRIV
The experiment in a line: FACS; competition with 1.0 uM FITC-AjKiss1a.

Another assay concerns the target T2, AjKissR2 (Apostichopus japonicus).
T2 chain: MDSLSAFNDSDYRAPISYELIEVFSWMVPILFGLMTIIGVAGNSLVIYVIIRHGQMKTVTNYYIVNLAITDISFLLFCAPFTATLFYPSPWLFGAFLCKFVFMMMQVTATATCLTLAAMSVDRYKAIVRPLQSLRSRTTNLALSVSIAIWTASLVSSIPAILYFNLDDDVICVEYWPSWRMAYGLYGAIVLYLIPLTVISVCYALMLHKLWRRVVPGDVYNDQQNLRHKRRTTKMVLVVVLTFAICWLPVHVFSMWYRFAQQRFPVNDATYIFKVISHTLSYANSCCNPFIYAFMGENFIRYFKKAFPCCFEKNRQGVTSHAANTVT
The experiment in a line: FACS; competition with 1.0 uM FITC-AjKiss1a. A general note: Flow cytometry measures light scatter and fluorescence of single cells or particles in a stream.

Positions of bridges follow the written chain, without caps; N, C: chain ends. No end group written: not given here.

A word on the IC50: it is the concentration at which inhibition is half-maximal. A low value points to greater potency in that assay. In the case of AGSLDCLEASCEDVERRGRQPNRNAHYRTLPF-NH2 (disulfide 6-11 (inferred)) [AjKiss1a], the concentration for half-maximal inhibition (IC50) with AjKissR1 amounted to 568 nM. In the case of SAVKNKNKSRARPPLLPF-NH2 [AjKiss1b], the IC50 with AjKissR2 was 1250 nM.
